# Measured values: the RNAGym collection of RNA variant scans (doi:10.1073/pnas.2313332121)
# B1: TPR t1 (parent)
# chain: GACCAAUCUGCCCUCAGAGCUCGAGAACAUCUUCGGAUGCAGAGGAGGCAGGCUUCGGUGGCGCGAUAGCGCCAACGUCCUCAACCUCCAAUGCAUCCCACCACAUGAUGAUGCCUGAAGAGCCUUGGUUUUUUG
# Variants of: B1
# Experiment: polymerase ribozyme fitness, log enrichment relative to wild type (log ratio); higher = more active; in vitro selection for triplet polymerase activity
# In short: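 Streptavidin-bead capture of gel-excised extended constructs, followed by RT-PCR, closed a single triplicate in vitro selection round. That round began by annealing PCR-built, transcribed mutant libraries of each subunit of a heterodimeric triplet polymerase ribozyme with a biotinylated primer, the partner subunit and triplets, then incubating them frozen at −7 °C. After Illumina sequencing of inputs and outputs, genotypes needed ≥10 input reads and ≥1 read per output. Fitness is the base-2 logarithm of genotype enrichment over wild-type enrichment, using inverse-variance-weighted replicate averages.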
row,Variant,polymerase ribozyme fitness (log ratio)
1,A24G G117C G128A,-6.86
2,A27G U129C,-3.02
3,C28G G117A,-4.12
4,A24G C34A C53U U87G U132A,-4.54
5,A27C C53G,-2.64
6,G25U C64G C88A G110A G120C C123U,-6.08
7,A27C U32C G39A C98G,-7.35
8,C28A G110C A119U,-1.42
9,A27C C104U,-3.21
10,G25A G47A C72G C76U U87G C114G,-5.41
11,C28A G45A,-5.12
12,A27C G71A,-4
13,C28G C70A,-4.55
14,A24G C73A,-1.74
15,A24U G61U C88A G117C,-6.74
16,A26C G47U C56U U112C,-5.64
17,A27U G135C,-3.11
18,C28G G71A A83G U87G A119U,-5.64
19,A26U C115U,-4.53
20,A24U C56A G60A C123U U125A,-5.92
21,A26G C70G,-3.51

row,Variant,polymerase ribozyme fitness (log ratio)
1,C28A G120C,-2.79
2,A26G C114U,-3.27
3,A24G C56G G113A G120A G128A,-7.42
4,A27U G113U,-4.99
5,A27U C97U U130C,-3.37
6,A26G G51U C101U,-5.8
7,G25U C72U G110U C114U,-6.32
8,A26G G60C C86G,-3.98
9,A26G C89G C102U U112A G120A,-5.43
10,A27U C53A C72U,-3.4
11,A24G A27G,-4.03
12,A27U U78C,-2.98
13,A27U C62U,-3.58
14,A24G C97U G120U,-2.28
15,A26U A37C G77A C124G,-1.36
16,A27G C49G C64U,-2.51
17,A27U G71U C94A,-4.88
18,A26U C82G C115U,-5.9
19,A27U C89U,-2.8
20,A24G U54G G57C C72U C73G C124U,-3.92
21,A26G A29G C80G C86U A119G,-3.74

row,Variant,polymerase ribozyme fitness (log ratio)
1,A24G G60A C80U C88A,-4.67
2,A26G G61A C82A U112A U131C,-0.172
3,A24G U59A U78C C85G U106G,-3.94
4,A27U U96G G110U,-7.43
5,C28G C40A C94U G110C,-0.668
6,A27U G69U U132C,-1.95
7,A24G U87G,-2.03
8,A27G A50U G61A A83G U126G G128C,-5.38
9,A27G G69C C102U,-4.65
10,G25A C62A C86U C102U G120C,-7.36
11,A27G U106G U112G,-1.51
12,G25C C70A,-7.32
13,A26C C53U C56G,-5.02
14,A26G A29G C72G U78A A118U,-3.07
15,A24U G39A C72A U112C,-7.11
16,A26G C40U G63C C79A C101U G117A,-5.91
17,C28G G69U A91G U116G,-5.08
18,A27G A50G U81A,-1.56
19,A24G A43G,-3.13
20,A26G C72A C86G A111U G122U,-3.76
21,C28G U54G C62U,-3.83

row,Variant,polymerase ribozyme fitness (log ratio)
1,C28G U32C A91U C114U A119G,-6.71
2,A27U A43U G48A C88A C123A,-4.03
3,A26C G61U U78C C80U A83G U116G,-6.77
4,A26U G35U C53U U112C C114U G117A,-7.18
5,A27U G61C,-5.97
6,C28A A83U G110U,1.66
7,C28G C53A C88U C124A,-1.3
8,A27U C73U,-2.99
9,A26U G48U,-3.85
10,A26G G71U C88G G120C,-3.91
11,A27G A50U,-2.6
12,A27U C82G U106A G120C,-1.62
13,C28G U96A C97G G117C,-8.14
14,A27G A50G C72U U81A,-2
15,A27G C104A,-2.31
16,G25C G61C U92G G117U,-6.32
17,G25C G69U,-4.39
18,A26U G71C U131A,-4.6
19,A26G A50G C56G A74G C82G,-4.41
20,C28A C72A,-3.59
